From patent US11156615B2 (priority 2015, dated 2021) come the findings set out here.

Data set [1] is classed as physicochemical. The source says:
(§1) Panels A-C: ttGBP182C.2.0-Imm0; Panels D-F: ttGBP182C.2.0-Imm1 (see FIG. 13). (A) Solution (Tm=347.6K). (B) Immobilized on Nickel-nitriloacetic acid (Ni-NTA) beads (Tm=346.7K). (C) Reconstituted, desiccated Ni-NTA beads (Tm=347.6K). (D) Fluorescence response of ttGGBP5.2 Imm1 immobilized on NHS-functionalized agarose beads. Data was collected on a Roche LightCycler real-time PCS instrument, recording emission intensities at 488 nm and 510 nm as a function of temperature in a 384-well microtiter plate. […] Temperature melts of twelve different wells. Apo protein thermostability as reported by the denaturation mid-point temperature is 349 K, similar to the protein free in solution. […] (F) Representative Langmuir ligand-binding curve extracted from the three-dimensional data.
(§2) Site-specific immobilization minimizes perturbation of the sensing mechanism. […] Similarly, hexa-lysine fusion domains were immobilized on agarose beads derivatized with N-hydroxysuccinimide, and the QNK- or βZif-fusion on iodacetyl-derivatized beads.

Data set [2] can be described thus: Glucose titration of bead-immobilized sensor. It is filed as binding. Particulars: read-out: Kd (glucose); 25° C.; immobilized on NHS-functionalized agarose beads.
Description: as §1
Data were highly precise, being reproducible <0.2% coefficient of variance.
as §2

B1: ttGGBP5.2 Imm1: ttGGBP182C.2.0 immobilization fusion construct Imm1 (SEQ ID NO: 175), labelled, on NHS-functionalized agarose beads (conjugate)
chain: MKQLNIGVAIYKFDDTFMTGVRNAMTAEAQGKAKLNMVDSQNSQPTQNDQVDLFITKKMNALAINPVDRTAAGTIIDKAKQANIPVVFFNKEPLPEDMKKWDKVYYVGAKAEQSGILQGQIMADYWKAHPEADKNHDGVMQYVMLMGEPGHQDAILRTQYSIQTVKDAGIKVQELAKDYANCDRVTAHDKMAAWLSSFGDKIEAVFANNDDMALGAIEALKSAGYFTGNKYIPVVGVDATAPGIQAIKDGTLLGTVLNDAKNQAKATFNIAYELAQGITPTKDNIGYDITDGKYVWIPYKKITKDNISDAEQGGSGGSKKKKKKGGSHHHHHH
modifications: fluorescent label; immobilized on NHS-agarose beads; ttGGBP182C.2.0_Imm1
By Kd is commonly meant the concentration at which binding is half-saturated. With B1, in data set [1], the “denaturation mid-point temperature (apo protein thermostability)” value is given as 349 K. Further, the Kd in data set [2] worked out at 4.8 mM.
